Assay [1] addresses FITC-labeled MAGEA3 C-terminal degron peptide. Briefly: fluorescence polarisation; direct binding; protein titrated from 4 µM in two-fold steps against 20 nM FITC peptide; 20 mM Tris pH 7.5, 150 mM NaCl, 5% glycerol, 0.5 mM TCEP, 0.01% Triton; 45 min at room temperature. In general terms: Polarisation of emitted light reports the rotation of a fluorescent probe.
For assay [2], the target named is FITC-labeled CCT5 C-terminal degron peptide (human). The description is as above.

Among the data in publication PMC11044963, “Probing the CRL4^DCAF12 interactions with MAGEA3 and CCT5 di-Glu C-terminal degrons” (PNAS Nexus, 2024) are Kd values, retold here.

On to “DDB1–DCAF12–DDA1 complex (from UniProt Q5T6F0 1-453; Q5T6F0 1-453; Q9BW61 1-102)”, for which the Kd (commonly the free concentration of one partner at which half of the binding sites on the other are occupied at equilibrium, for simple one-to-one binding) was determined as 60 nM in assay [1] and 130 nM in assay [2].
